Results from article PMC9253516.
pKd: −log10 of the molar value.

Columns and labels:
Sgo1_(1–130) (human) = Sgo1_(1–130) (human) (UniProt Q5FBB7); assay: ITC; Survivin or CPC (monomer concentration) injected into Sgo1 constructs, 20°C; 50 mM Hepes pH 8, 150 mM NaCl, 5% glycerol, 1 mM TCEP; standard 1:1 binding model
Sgo1_(1–155) (human) = Sgo1_(1–155) (human) (UniProt Q5FBB7); assay: as above
Sgo1_(1–415) (human) [1] = target: Sgo1_(1–415) (human) (UniProt Q5FBB7); assay: ITC; 100 μM CPC injected into 10 μM Sgo1 1-415 or 1-415 4A, 20°C; 50 mM Hepes pH 8, 250 mM NaCl, 5% glycerol, 1 mM TCEP, 0.005% Tween; standard 1:1 binding model
Sgo1_(1–415 4A) (human) = Sgo1_(1–415 4A) (human) (UniProt Q5FBB7); assay: as above
Sgo1_(1–415) (human) [2] = target: Sgo1_(1–415) (human) (UniProt Q5FBB7); assay: ITC; Survivin or CPC (monomer concentration) injected into Sgo1 constructs, 20°C; 50 mM Hepes pH 8, 150 mM NaCl, 5% glycerol, 1 mM TCEP; standard 1:1 binding model
Sgo1_(1–415) (human) [3] = target: Sgo1_(1–415) (human) (UniProt Q5FBB7); assay: mass photometry; samples cross-linked with 0.01% glutaraldehyde 5 min at 4°C, quenched with Tris; 20 nM measured in 25 mM Hepes pH 8, 250 mM NaCl, 2 mM DTT
Aurora B (endogenous) = Aurora B (endogenous) (UniProt Q96GD4); assay: LacO-LacI tethering assay, immunofluorescence in U-2 OS-LacO Haspin CM cells; conditions: n = 17 (parent), red bar = mean, parent: est. 3.5, read off a plot
Sequence of Aurora B (endogenous) (Q96GD4 whole entry): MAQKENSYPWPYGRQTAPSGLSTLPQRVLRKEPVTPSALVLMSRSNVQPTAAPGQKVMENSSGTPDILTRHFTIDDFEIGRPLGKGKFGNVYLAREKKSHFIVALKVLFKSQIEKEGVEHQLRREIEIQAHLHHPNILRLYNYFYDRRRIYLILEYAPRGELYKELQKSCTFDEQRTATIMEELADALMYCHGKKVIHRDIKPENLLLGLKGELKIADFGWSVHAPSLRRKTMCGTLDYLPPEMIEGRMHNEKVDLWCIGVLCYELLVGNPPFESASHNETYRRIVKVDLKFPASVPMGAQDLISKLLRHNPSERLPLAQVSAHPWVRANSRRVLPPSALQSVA

Borealin (endogenous) = Borealin (endogenous) (UniProt Q53HL2); assay: as above; conditions: n = 22 (parent), red bar = mean, parent: est. 1.5, read off a plot

Q: “CPC_(ISB10–221) (INCENP_(1–58), Survivin, Borealin_(10–221)) (from UniProt Q9NQS7 1-58; O15392 1-142; Q53HL2 10-221) (complex)” was tested. Which pKd (Sgo1_(1–130) (human)) did it give?
A: The pKd was 6.79.

Q: How did the pKd (Sgo1_(1–155) (human)) turn out when “CPC_(ISB10–280 H80A) (from UniProt Q9NQS7 1-58; O15392 1-142; Q53HL2 10-280) (complex)” was run?
A: Its pKd is 6.95.

Q: “CPC_(ISB10–280 K62A) (from UniProt Q9NQS7 1-58; O15392 1-142; Q53HL2 10-280) (complex)” was tested. Which pKd (Sgo1_(1–155) (human)) did it give?
A: Its pKd is 7.37.

Q: With “CPC_(ISB10–280) (INCENP_(1–58), Survivin full length, Borealin_(10–280)) (from UniProt Q9NQS7 1-58; O15392 1-142; Q53HL2 10-280) (complex)” as the substance, how does the pKd (Sgo1_(1–415) (human) [1]) read?
A: Its pKd is 6.82.

Q: What about the pKd (Sgo1_(1–415 4A) (human)) of the same substance?
A: Its pKd is 6.95.

Q: And the pKd (Sgo1_(1–155) (human))?
A: The pKd was 7.15.

Q: What about the pKd (Sgo1_(1–415) (human) [2]) of the same substance?
A: Its pKd is 7.28.

Q: What about the dH (Sgo1_(1–415) (human) [2]) of the same substance?
A: The dH was -6.58 kcal/mol.

Q: And the stoichiometry N (Sgo1_(1–415) (human) [2])?
A: Its stoichiometry N is 1.

Q: And the pKd (Sgo1_(1–130) (human))?
A: The pKd was 7.24.

Q: What about the stoichiometry N (Sgo1_(1–415) (human) [3]) of the same substance?
A: Its stoichiometry N is 1 ratio (2:2).

Q: Which stoichiometry N (Sgo1_(1–415) (human) [3]) does the source give for “Sgo1_(1–415) (from UniProt Q5FBB7 1-415) (domain or fragment)” here?
A: The stoichiometry N was 2.

Q: For Sgo1_(1–527)-LacI-GFP Nmut, which response (Aurora B (endogenous); n = 14 (mutant)) is on record?
A: The response was 2.3 a.u.

Q: And the response (Borealin (endogenous); n = 23 (mutant))?
A: Its response is 0.6 a.u.

Q: How did the response (Aurora B (endogenous); n = 22 (mutant)) turn out when “Sgo1_(1–527)-LacI-GFP Nmut; V188A; S189A; V190A; R191A” was run?
A: Its response is 0.4 a.u.

Q: And the response (Borealin (endogenous); n = 22 (mutant))?
A: The response was 0.28 a.u.

Q: Which response (Aurora B (endogenous); n = 19 (mutant)) does the source give for “Sgo1_(1–527)-LacI-GFP V188A; S189A; V190A; R191A” here?
A: The response was 1.6 a.u.

Q: “Survivin full length (from UniProt O15392 1-142) (natural protein)” was tested. Which pKd (Sgo1_(1–155) (human)) did it give?
A: The pKd was 6.62.

Q: What about the pKd (Sgo1_(1–130) (human)) of the same substance?
A: The pKd was 6.59.

Q: With “Survivin_(1–116) (from UniProt O15392 1-116) (domain or fragment)” as the substance, how does the pKd (Sgo1_(1–155) (human)) read?
A: The pKd was 6.39.
